Data as given in US20140234325A1 (ALBERT EINSTEIN COLLEGE OF MEDICINE, published 2014).

What was measured:
[1] = biological target: T1, staphylococcal enterotoxin A (SEA) (Staphylococcus aureus, UniProt P0A0L1 25-257); assay: Western blot with purified toxin
T1 sequence: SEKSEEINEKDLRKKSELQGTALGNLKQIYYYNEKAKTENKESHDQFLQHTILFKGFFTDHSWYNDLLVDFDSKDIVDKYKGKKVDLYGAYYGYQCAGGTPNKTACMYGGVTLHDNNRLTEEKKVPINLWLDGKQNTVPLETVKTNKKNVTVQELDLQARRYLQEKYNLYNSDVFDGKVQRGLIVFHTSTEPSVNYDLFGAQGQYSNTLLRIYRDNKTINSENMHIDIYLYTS

[2] = biological target: T2, toxic shock syndrome toxin-1 (TSST-1) (Staphylococcus aureus, UniProt P06886 41-234); assay: Western blot with purified toxin
T2 sequence: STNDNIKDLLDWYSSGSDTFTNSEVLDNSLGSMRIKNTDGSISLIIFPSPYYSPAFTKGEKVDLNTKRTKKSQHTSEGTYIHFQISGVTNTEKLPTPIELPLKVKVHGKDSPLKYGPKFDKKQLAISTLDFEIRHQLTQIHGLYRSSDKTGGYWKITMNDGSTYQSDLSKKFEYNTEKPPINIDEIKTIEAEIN

B1: mAb 6D3 (antibody, V domains shown)
VH: QVQLQQSGAELVKPGASVKLSCKASGYTFTSHWMHWVKQRPGQGLEWIGEIDPSDSYINYNQIFEGKATLTVDKSSTTAYLQLSSLTSEDSAVYYCARTAGLLAPMDYWGQGTSVTVSS
VL: DIVMTQSPSSLTVTAGEKVTMTCKSSQSLFNSGNQKNFLTWYQQIPGQPPKLLIYWASTRDSGVPDRFTGSGSGTDFTLTISSVQAEDLAVYYCQNDYTYPLTFGVGTKLELK
[1]
  binding result: no binding
[2]
  binding result: no binding

B2: mAb 20B1 (antibody, V domains shown)
VH: QIQLVQSGPELKKPGETVRISCKASGYIFTIAGIQWVQKMPGRGLRWIGWINTHSGVPEYAEEFKGRFAFSLETSARTAYLQISNLKDEDTATYFCARIYYGNNGGVMDYWGQGTSVTVSS
VL: DIQMTQSPSSLSASLGERVSLTCRASQEISDYLTWLQQKPDGTIKRLIYVASSLDSGVPKRFSGSRSGSDYSLTISSLESEDFADYYCLQYANYPWTFGGGTKLEIR
[1]
  binding result: no binding
[2]
  binding result: no binding

B3: mAb 14G8 (antibody, V domains shown)
VH: EVQLLESGGGLVQPGGSLKLSCATSGFTFSAYGLSWVRQTPERRLEWVASISGGGSVYYPDSVKGRFTISRDTAGDILFLQMNSLRSEDSAIYYCVRDLYGDYVGRYAYWGQGTLVIVSA
VL: DIVMTQSPATLSVTPGDRVSLSCRASQSIGDYLHWYQQKSHESPRLLINYASQSISGIPSRFSGSGSGSDFTLIINSVEPEDVGVYYCQNGHSFPYTFGGGTKLEIR
[1]
  binding result: no binding
[2]
  binding result: no binding
